Laboratory results: patent US20240115717A1 (VRG THERAPEUTICS KFT, published 2024)

Molecular target: phage-displayed CTXD of SEQ ID NO: 24 (bacteriophage M13)
Assay: Co-bead test, phage display (FIG. 3)

B1: his-tagged MMP-2 (Co-bead test; ProSpec #ENZ-769) (enzyme)
chain: YNFFPRKPKWDKNQITYRIIGYTPDLDPETVDDAFARAFQVWSDVTPLRFSRIHDGEADIMINFGRWEHGDGYPFDGKDGLLAHAFAPGTGVGGDSHFDDDELWTLGEGQVVRVKYGNADGEYCKFPFLFNGKEYNSCTDTGRSDGFLWCSTTYNFEKDGKYGFCPHEALFTMGGNAEGQPCKFPFRFQGTSYDSCTTEGRTDGYRWCGTTEDYDRDKKYGFCPETAMSTVGGNSEGAPCVFPFTFLGNKYESCTSAGRSDGKMWCATTANYDDDRKWGFCPDQGYSLFLVAAHEFGHAMGLEHSQDPGALMAPIYTYTKNFRLSQDDIKGIQELYGASPDIDLGTGPTPTLGPVTPEICKQDIVFDGIAQIRGEIFFFKDRFIWRTVTPRDKPMGPLLVATFWPELPEKIDAVYEAPQEEKAVFFAGNEYWIYSASTLERGYPKPLTSLGLPPDVQRVDAAFNWSKNKKTYIFAGDKFWRYNEVKKKMDPGFPKLIADAWNAIPDNLDAVVDLQGGGHSYFFKGAYYLKLENQSLKSVKFGSIKSDWLGC
notes: range 110-660; also called matrix metalloproteinase 2
- binding result: binds
